Experimental data reported in US20250327069A1 (CORNELL UNIVERSITY, published 2025).

Experiments:
[1] = tested on: Tn6900 Cascade-TniQ wild type (with TnsABC) (Aeromonas salmonicida S44); test: cell_activity; details: CC PAM in transposition screen; about 3-fold
[2] = tested on: I-F1 PA14 Csy complex with Cas2/3 (Pseudomonas aeruginosa PA14); test: cell_activity; details: CC PAM; interference assay, completely depleted
[3] = tested on: Tn6900 Cascade-TniQ, Cas8/5 A247Q+S248N Cas8/5 A247Q,S248N (Aeromonas salmonicida S44); test: cell_activity; details: over half of transposition events at PAMs with -1 C
Chain of Tn6900 Cascade-TniQ, Cas8/5 A247Q+S248N Cas8/5 A247Q,S248N (Aeromonas salmonicida S44) (chain, as listed by the source A247Q S248N A247Q S248N, chain 2 of 2): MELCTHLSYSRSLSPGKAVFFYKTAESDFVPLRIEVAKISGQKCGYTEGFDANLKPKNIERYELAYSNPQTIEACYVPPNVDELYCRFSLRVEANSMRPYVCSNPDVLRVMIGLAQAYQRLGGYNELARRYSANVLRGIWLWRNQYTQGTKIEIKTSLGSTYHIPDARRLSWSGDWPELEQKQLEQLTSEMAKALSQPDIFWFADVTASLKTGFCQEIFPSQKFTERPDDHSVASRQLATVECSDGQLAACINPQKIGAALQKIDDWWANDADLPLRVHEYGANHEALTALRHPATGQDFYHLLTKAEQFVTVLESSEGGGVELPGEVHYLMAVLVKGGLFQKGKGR
Chain of Tn6900 Cascade-TniQ, Cas8/5 A247Q+S248N Cas8/5 A247Q,S248N (Aeromonas salmonicida S44) (chain, as listed by the source A247Q S248N A247Q S248N, chain 3 of 2): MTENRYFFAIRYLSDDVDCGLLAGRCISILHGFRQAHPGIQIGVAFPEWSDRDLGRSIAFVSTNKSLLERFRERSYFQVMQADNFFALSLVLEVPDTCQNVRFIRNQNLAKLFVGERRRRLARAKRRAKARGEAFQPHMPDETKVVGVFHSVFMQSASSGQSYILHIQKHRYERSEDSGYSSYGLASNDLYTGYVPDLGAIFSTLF

[4] = target: the molecule itself; test: cryo-EM structure of the Cascade-TniQ full R-loop complex
[5] = target: T1, Cas8/5 protein of the I-F3b Tn6900 Cascade (Aeromonas salmonicida S44 (Tn6900 …)); test: as above
T1 chain: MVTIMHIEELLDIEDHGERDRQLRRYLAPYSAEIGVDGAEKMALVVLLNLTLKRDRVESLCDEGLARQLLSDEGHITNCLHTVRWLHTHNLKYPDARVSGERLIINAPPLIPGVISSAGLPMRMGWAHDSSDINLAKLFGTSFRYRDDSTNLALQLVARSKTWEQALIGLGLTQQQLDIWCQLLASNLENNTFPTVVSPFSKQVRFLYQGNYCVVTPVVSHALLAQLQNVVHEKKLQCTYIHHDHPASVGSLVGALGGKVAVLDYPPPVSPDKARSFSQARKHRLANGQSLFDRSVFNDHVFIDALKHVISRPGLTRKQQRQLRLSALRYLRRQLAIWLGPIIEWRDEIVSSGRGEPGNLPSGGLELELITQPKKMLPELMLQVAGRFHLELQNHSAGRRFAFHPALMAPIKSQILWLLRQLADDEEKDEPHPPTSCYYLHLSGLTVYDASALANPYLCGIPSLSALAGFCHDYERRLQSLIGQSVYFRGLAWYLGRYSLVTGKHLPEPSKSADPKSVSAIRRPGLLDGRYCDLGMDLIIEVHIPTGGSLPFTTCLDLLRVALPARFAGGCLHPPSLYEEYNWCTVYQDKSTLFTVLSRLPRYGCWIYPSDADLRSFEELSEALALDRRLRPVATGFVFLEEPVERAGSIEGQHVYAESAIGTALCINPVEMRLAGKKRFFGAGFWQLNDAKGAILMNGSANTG

Chain of Tn6900 Cascade-TniQ wild type (with TnsABC) (Aeromonas salmonicida S44) (chain, as listed by the source, chain 2 of 2): as the sequence (chain, as listed by the source A247Q S248N A247Q S248N, chain 2 of 2) above
Chain of Tn6900 Cascade-TniQ wild type (with TnsABC) (Aeromonas salmonicida S44) (chain, as listed by the source, chain 3 of 2): as the sequence (chain, as listed by the source A247Q S248N A247Q S248N, chain 3 of 2) above

## atypical crRNA ffs (60 nt) ; CC-PAM ffs target
[1]
  binding signal (fold enrichment): 3

## PA14 crRNA-ffs ; CC-PAM ffs target
[2]
  enrichment after interference (depletion) (enrichment (depletion)): < 0.005

## atypical crRNA ffs (60 nt) ; NN-PAM ffs plasmid pool
[3]
  share of transposition events at PAMs with -1 C (% of events with C at -1): > 50

B1: TniQ subunit (monomer) of the TniQ homo-dimer (other)
chain: MHLLVRPEPFADEALESYFLRLSQENGFERYRIFSGSVQDWLHTTDHAAAGAFPLELSRLNIFHASRSSGLRVRALQLVDRLTDGAPFRLLQLALCHSAISFGNHYKAVHRSGVDIPLSFIRVHQIPCCPDCLRESAYVRQCWHFKPYVGCHRHGGRLIYSCPACGESLNYLASESINHCQCGFDLRTASTVPAQPDEIQLSALAYGCSFESSNPLLAIGSLSARFGALYWYQQRYLSDHEAVRDDRALTKAIGHFTAWPDAFWRELQQMVDDALVRQTKPLNHTDFVDVFGSVVADCRQIPMRNTGQNFILKNLIGFLTDLVARHPQCRVANVGDLLLSAVDAATLLSTSVEQVRRLHHEGFLPLSIRPASRNTVSPHRAVFHLRHVVELRQARMQSHHDHSSTYLPAW
notes: One chain of the dimer, entered to record the self-association of TniQ; also called TniQ.1; TniQ.2; not shown: His6 tag named only in the plasmid name (pCOLADuet-1-His6-tniQ)
[4]
  binding result: binds

B2: TniQ transposition protein of the I-F3b element Tn6900 (Aeromonas salmonicida S44), homo-dimer as associated with Cascade (other)
chain: MHLLVRPEPFADEALESYFLRLSQENGFERYRIFSGSVQDWLHTTDHAAAGAFPLELSRLNIFHASRSSGLRVRALQLVDRLTDGAPFRLLQLALCHSAISFGNHYKAVHRSGVDIPLSFIRVHQIPCCPDCLRESAYVRQCWHFKPYVGCHRHGGRLIYSCPACGESLNYLASESINHCQCGFDLRTASTVPAQPDEIQLSALAYGCSFESSNPLLAIGSLSARFGALYWYQQRYLSDHEAVRDDRALTKAIGHFTAWPDAFWRELQQMVDDALVRQTKPLNHTDFVDVFGSVVADCRQIPMRNTGQNFILKNLIGFLTDLVARHPQCRVANVGDLLLSAVDAATLLSTSVEQVRRLHHEGFLPLSIRPASRNTVSPHRAVFHLRHVVELRQARMQSHHDHSSTYLPAW
notes: Expressed in E. coli together with Cascade and purified as the Cascade-TniQ complex over Ni-NTA through the His6 tag on TniQ; also called His6-TniQ; TniQ dimer; not shown: His6 tag named only in the plasmid name (pCOLADuet-1-His6-tniQ)
[5]
  binding result: binds
